The values that follow come from patent US20240167070.

For series [1], the target named is T1, model peptide 6, AIYRRGRLYRRDSL
T1 chain: AIYRRGRLYRRDSL

For series [2], the target named is T2, model peptide 4, AIYRRGRLYRRNSL
T2 chain: AIYRRGRLYRRNSL

In series [3] the target is T3, model peptide 5, …(OH)SL.
T3 chain: AIYRRGRLYRRXSL

Series [4] deals with T4, model peptide 2, …(OH)HV.
T4 chain: AIYRRGRLYRRXHV

Series [5] deals with T5, model peptide 3, AIYRRGRLYRRDHV
T5 chain: AIYRRGRLYRRDHV

In series [6] the target is T6, model peptide 1, AIYRRGRLYRRNHV
T6 chain: AIYRRGRLYRRNHV

By Km is commonly meant the substrate concentration at which the rate is half of its maximum.

B1: VyPAL2 (protein)
chain: DSIGTRWAVLIAGSKGYHNYRHQADVCHMYQILRKGGVKDENIIVFMYDDIAYNESNPFPGIIINKPGGENVYKGVPKDYTGEDINNVNFLAAILGNKSAIIGGSGKVLDTSPNDHIFIYYADHGAPGKIGMPSKPYLYADDLVDTLKQKAATGTYKSMVFYVEACNAGSMFEGLLPEGTNIYAMAASNSTEGSWITYCPGTPDFPPEFDVCLGDLWSITFLEDCDAHNLRTETVHQQFELVKKKIAYASTVSQYGDIPISKDSLSVYM
Regarding B1, the values for the Km in series [1], in series [2] and in series [3] were 2070 µM, 42.5 µM and 120 µM, respectively.

B2: butelase-1 (protein)
chain: VEGTRWAVLVAGSKGYVNYRHQADVCHAYQILKKGGLKDENIIVFMYDDIAYNESNPHPGVIINHPYGSDVYKGVPKDYVGEDINPPNFYAVLLANKSALTGTGSGKVLDSGPNDHVFIYYTDHGGAGVLGMPSKPYIAASDLNDVLKKKHASGTYKSIVFYVESCESGSMFDGLLPEDHNIYVMGASDTGESSWVTYCPLQHPSPPPEYDVCVGDLFSVAWLEDCDVHNLQTETFQQQYEVVKNKTIVALIEDGTHVVQYGDVGLSKQTLFVYMGTDPAN
In the case of B2, the Michaelis-Menten constant (Km) stood at 98.8 µM in series [4], 630 µM in series [5] and 67.5 µM in series [6].
